Test [1] addresses T1, ubiquitin (UniProt P0CG47 1-76). Put plainly: ITC. On the technique in general: In ITC the heat of successive injections is recorded.
The target in test [2] is T1, ubiquitin. Briefly: NMR titration.

B1: human REV1 (932–1039) (domain or fragment, UniProt Q9UBZ9 932-1039, looked up)
chain: VPSPSQLDQSVLEALPPDLREQVEQVCAVQQAESHGDKKKEPVNGCNTGILPQPVGTVLLQIPEPQESNSDAGINLIALPAFSQVDPEVFAALPAELQRELKAAYDQR
What is called Kd is the constant that tells how readily two partners part at equilibrium. In the case of B1, the Kd in test [1] was around 49 µM; in test [2], around 27 µM.

The values are drawn from publication PMC6043352 (Journal of molecular biology, 2018).
